Reference: the supplement of paper PMC10065799, “High-throughput profiling of sequence recognition by tyrosine kinases and SH2 domains using bacterial peptide display” (eLife, 2023)

Each sequence was assayed against SHP2-C SH2 (assay: SH2 binding enrichment of the phosphorylated peptide, bacterial display (enrichment ratio); higher = better substrate or ligand; peptides without Tyr show the background).
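For SH2 binding enrichment of the phosphorylated peptide, bacterial display in this document: peptide library displayed on the E. coli surface as eCPX fusions, selected cells deep-sequenced, score is each peptide's frequency after selection divided by its frequency in the input.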
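For phosphorylation enrichment, bacterial display in this document: 11-residue human phosphosite peptides and single-mutation variants displayed on the E. coli surface, counted by deep sequencing, each peptide's frequency after selection divided by its frequency in the unselected input library; frequency after pTyr selection over input frequency; kinase dosed for 20-30% of maximal phosphorylation in three min.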

Compared with TFEYRYLEDRD [CNOT3_Y746], GIYSGYDDAWD [POLR1C_Y36_N32I] is lower in SH2 binding enrichment: 0.81 for the first, 0.632 for the second.

First: QSSALYEDRYL [ASS1_Y83]
Second: RAVLLYEYVGK [NATD1_Y45]
The SH2 binding enrichment of the first is lower: 0.493 for the first, 1.11 for the second.

Going from TVQVAYYTMMM [SPATA17_Y83] to KPGLIYNKVNP [SPRED3_Y72_V71I], the SH2 binding enrichment rises from 0.852 to 1.44.

Compared with RPGSGYTNIMR [PKLR_Y564], PNAYIYVVQLP [L1CAM_Y420_A415P] is lower in SH2 binding enrichment: 1.43 for the first, 1.14 for the second.

First: GGYNNYGYGSD [HNRNPH3_Y159_N163S]
Second: IKNSGYISQFL [EIF2AK3_Y585_R588Q_YF]
The SH2 binding enrichment of the first is lower: 0.575 for the first, 0.878 for the second.

Compared with STSFDYCRVPM [BST2_Y8_YF], DEENFYQGSME [ASCC1_Y36_D34N] is higher in SH2 binding enrichment: 0.571 for the first, 0.701 for the second.

First: VDSLRYIFPKL [EIF2B3_Y92_A87V_YF]
Second: DFCDLYGGEKF [PTPN11_Y66_Y63C_YF]
The SH2 binding enrichment of the first is higher: 1.27 for the first, 0.75 for the second.

Compared with AGQERYRAITS [RAB11B_Y73], RMGNLYDIDEN [GRIN2A_Y1246_D1251N] is higher in SH2 binding enrichment: 0.412 for the first, 0.613 for the second.

Going from VVVTKYCKEEL [ATP7B_Y1078_A1074V] to AGTIPYHAHLD [ASS1_Y291_L290P], the SH2 binding enrichment rises from 0.609 to 0.772.

First: ANAYIYDVQLP [L1CAM_Y420_V421D]
Second: FGMQLYQNFMH [GRB14_Y347_YF]
The SH2 binding enrichment of the first is higher: 1.54 for the first, 1.34 for the second.

First: EKPAKYDDIKK [GAPDH_Y255]
Second: KRYRIYHLAIS [BRCA2_Y3009_T3013I]
The SH2 binding enrichment of the first is lower: 0.662 for the first, 1.03 for the second.

Compared with LLINKYGLSDH [SCP2_Y151_A155D], FHLLPYTVRAM [PARS2_Y93_YF] is higher in SH2 binding enrichment: 1.11 for the first, 1.57 for the second.

First: RREWFYEVIIA [BACE1_Y260_V265A_YF]
Second: LNPFIYSLRNC [OR1A2_Y288_W293C]
The SH2 binding enrichment of the first is lower: 0.605 for the first, 0.734 for the second.

First: RASDYYSQQMA [GBP6_Y334_A331S]
Second: RFLRGYRQHAY [HLA-A_Y137_D140H]
The SH2 binding enrichment of the first is higher: 0.651 for the first, 0.57 for the second.

Going from ISSLLYELLEE [TRPC6_Y896_R895L] to TEQMAYCPIQC [SHC4_Y403], the SH2 binding enrichment rises from 0.619 to 0.643.

First: PQAVRYIFTID [DCX_Y103_G100A_YF]
Second: LNPDGYKKAYE [CPXM2_Y427_E428K]
The SH2 binding enrichment of the first is higher: 3.09 for the first, 0.613 for the second.

In the case of RTTIHYNFMCN [TP53_Y234_C229R_YF], the SH2 binding enrichment is reported as 0.657.

The sequences below were run against c-Src SH2 in the same assay as above.

First: TFEYRYLEDRD [CNOT3_Y746]
Second: GIYSGYDDAWD [POLR1C_Y36_N32I]
The SH2 binding enrichment of the first is lower: 1.01 for the first, 5.53 for the second.

Going from QSSALYEDRYL [ASS1_Y83] to RAVLLYEYVGK [NATD1_Y45], the SH2 binding enrichment rises from 0.653 to 1.02.

Going from TVQVAYYTMMM [SPATA17_Y83] to KPGLIYNKVNP [SPRED3_Y72_V71I], the SH2 binding enrichment falls from 1.25 to 0.895.

First: RPGSGYTNIMR [PKLR_Y564]
Second: PNAYIYVVQLP [L1CAM_Y420_A415P]
The SH2 binding enrichment of the first is higher: 2.58 for the first, 0.862 for the second.

Compared with GGYNNYGYGSD [HNRNPH3_Y159_N163S], IKNSGYISQFL [EIF2AK3_Y585_R588Q_YF] is lower in SH2 binding enrichment: 0.951 for the first, 0.573 for the second.

Compared with STSFDYCRVPM [BST2_Y8_YF], DEENFYQGSME [ASCC1_Y36_D34N] is lower in SH2 binding enrichment: 0.558 for the first, 0.556 for the second.

First: VDSLRYIFPKL [EIF2B3_Y92_A87V_YF]
Second: DFCDLYGGEKF [PTPN11_Y66_Y63C_YF]
The SH2 binding enrichment of the first is higher: 0.752 for the first, 0.706 for the second.

Compared with AGQERYRAITS [RAB11B_Y73], RMGNLYDIDEN [GRIN2A_Y1246_D1251N] is higher in SH2 binding enrichment: 0.404 for the first, 1.2 for the second.

Going from VVVTKYCKEEL [ATP7B_Y1078_A1074V] to AGTIPYHAHLD [ASS1_Y291_L290P], the SH2 binding enrichment rises from 0.369 to 0.554.

Compared with ANAYIYDVQLP [L1CAM_Y420_V421D], FGMQLYQNFMH [GRB14_Y347_YF] is higher in SH2 binding enrichment: 0.773 for the first, 1.22 for the second.

Compared with EKPAKYDDIKK [GAPDH_Y255], KRYRIYHLAIS [BRCA2_Y3009_T3013I] is higher in SH2 binding enrichment: 1.34 for the first, 1.51 for the second.

Going from LLINKYGLSDH [SCP2_Y151_A155D] to FHLLPYTVRAM [PARS2_Y93_YF], the SH2 binding enrichment rises from 0.44 to 1.34.

Going from RREWFYEVIIA [BACE1_Y260_V265A_YF] to LNPFIYSLRNC [OR1A2_Y288_W293C], the SH2 binding enrichment rises from 0.512 to 0.624.

Going from RASDYYSQQMA [GBP6_Y334_A331S] to RFLRGYRQHAY [HLA-A_Y137_D140H], the SH2 binding enrichment falls from 0.521 to 0.424.

Compared with ISSLLYELLEE [TRPC6_Y896_R895L], TEQMAYCPIQC [SHC4_Y403] is higher in SH2 binding enrichment: 0.576 for the first, 0.777 for the second.

First: PQAVRYIFTID [DCX_Y103_G100A_YF]
Second: LNPDGYKKAYE [CPXM2_Y427_E428K]
The SH2 binding enrichment of the first is higher: 1.54 for the first, 0.444 for the second.

RTTIHYNFMCN [TP53_Y234_C229R_YF] showed an SH2 binding enrichment of 0.624.

The sequences below were run against Grb2 SH2 (UniProt P62993) in the same assay as above.
Sequence of Grb2 SH2 (P62993 whole entry, looked up): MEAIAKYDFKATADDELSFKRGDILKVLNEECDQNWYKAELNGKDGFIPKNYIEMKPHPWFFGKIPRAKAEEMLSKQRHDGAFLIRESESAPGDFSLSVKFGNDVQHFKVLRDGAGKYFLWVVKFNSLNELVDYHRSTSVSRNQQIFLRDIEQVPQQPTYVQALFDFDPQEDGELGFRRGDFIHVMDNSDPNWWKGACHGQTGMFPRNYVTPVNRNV

First: TFEYRYLEDRD [CNOT3_Y746]
Second: GIYSGYDDAWD [POLR1C_Y36_N32I]
The SH2 binding enrichment of the first is lower: 0.76 for the first, 0.854 for the second.

Going from QSSALYEDRYL [ASS1_Y83] to RAVLLYEYVGK [NATD1_Y45], the SH2 binding enrichment rises from 0.711 to 1.19.

Compared with TVQVAYYTMMM [SPATA17_Y83], KPGLIYNKVNP [SPRED3_Y72_V71I] is higher in SH2 binding enrichment: 0.782 for the first, 1.12 for the second.

Compared with RPGSGYTNIMR [PKLR_Y564], PNAYIYVVQLP [L1CAM_Y420_A415P] is higher in SH2 binding enrichment: 1.32 for the first, 1.36 for the second.

Going from GGYNNYGYGSD [HNRNPH3_Y159_N163S] to IKNSGYISQFL [EIF2AK3_Y585_R588Q_YF], the SH2 binding enrichment rises from 0.808 to 0.908.

First: STSFDYCRVPM [BST2_Y8_YF]
Second: DEENFYQGSME [ASCC1_Y36_D34N]
The SH2 binding enrichment of the first is lower: 0.675 for the first, 0.891 for the second.

Going from VDSLRYIFPKL [EIF2B3_Y92_A87V_YF] to DFCDLYGGEKF [PTPN11_Y66_Y63C_YF], the SH2 binding enrichment rises from 1.01 to 1.02.

Compared with AGQERYRAITS [RAB11B_Y73], RMGNLYDIDEN [GRIN2A_Y1246_D1251N] is lower in SH2 binding enrichment: 0.938 for the first, 0.805 for the second.

First: VVVTKYCKEEL [ATP7B_Y1078_A1074V]
Second: AGTIPYHAHLD [ASS1_Y291_L290P]
The SH2 binding enrichment of the first is lower: 0.637 for the first, 0.838 for the second.

Going from ANAYIYDVQLP [L1CAM_Y420_V421D] to FGMQLYQNFMH [GRB14_Y347_YF], the SH2 binding enrichment rises from 0.854 to 2.83.

Compared with EKPAKYDDIKK [GAPDH_Y255], KRYRIYHLAIS [BRCA2_Y3009_T3013I] is higher in SH2 binding enrichment: 0.657 for the first, 1.13 for the second.

Compared with LLINKYGLSDH [SCP2_Y151_A155D], FHLLPYTVRAM [PARS2_Y93_YF] is higher in SH2 binding enrichment: 0.939 for the first, 1.11 for the second.

Compared with RREWFYEVIIA [BACE1_Y260_V265A_YF], LNPFIYSLRNC [OR1A2_Y288_W293C] is lower in SH2 binding enrichment: 0.807 for the first, 0.69 for the second.

Compared with RASDYYSQQMA [GBP6_Y334_A331S], RFLRGYRQHAY [HLA-A_Y137_D140H] is lower in SH2 binding enrichment: 0.887 for the first, 0.539 for the second.

First: ISSLLYELLEE [TRPC6_Y896_R895L]
Second: TEQMAYCPIQC [SHC4_Y403]
The SH2 binding enrichment of the first is higher: 1.04 for the first, 0.793 for the second.

Going from PQAVRYIFTID [DCX_Y103_G100A_YF] to LNPDGYKKAYE [CPXM2_Y427_E428K], the SH2 binding enrichment falls from 1.53 to 0.744.

RTTIHYNFMCN [TP53_Y234_C229R_YF] showed an SH2 binding enrichment of 0.884.

These sequences were tested against FGFR1 (UniProt P11362) (assay: phosphorylation enrichment, bacterial display (enrichment ratio); higher = better substrate or ligand; peptides without Tyr show the background).
Sequence of FGFR1 (P11362 whole entry, looked up): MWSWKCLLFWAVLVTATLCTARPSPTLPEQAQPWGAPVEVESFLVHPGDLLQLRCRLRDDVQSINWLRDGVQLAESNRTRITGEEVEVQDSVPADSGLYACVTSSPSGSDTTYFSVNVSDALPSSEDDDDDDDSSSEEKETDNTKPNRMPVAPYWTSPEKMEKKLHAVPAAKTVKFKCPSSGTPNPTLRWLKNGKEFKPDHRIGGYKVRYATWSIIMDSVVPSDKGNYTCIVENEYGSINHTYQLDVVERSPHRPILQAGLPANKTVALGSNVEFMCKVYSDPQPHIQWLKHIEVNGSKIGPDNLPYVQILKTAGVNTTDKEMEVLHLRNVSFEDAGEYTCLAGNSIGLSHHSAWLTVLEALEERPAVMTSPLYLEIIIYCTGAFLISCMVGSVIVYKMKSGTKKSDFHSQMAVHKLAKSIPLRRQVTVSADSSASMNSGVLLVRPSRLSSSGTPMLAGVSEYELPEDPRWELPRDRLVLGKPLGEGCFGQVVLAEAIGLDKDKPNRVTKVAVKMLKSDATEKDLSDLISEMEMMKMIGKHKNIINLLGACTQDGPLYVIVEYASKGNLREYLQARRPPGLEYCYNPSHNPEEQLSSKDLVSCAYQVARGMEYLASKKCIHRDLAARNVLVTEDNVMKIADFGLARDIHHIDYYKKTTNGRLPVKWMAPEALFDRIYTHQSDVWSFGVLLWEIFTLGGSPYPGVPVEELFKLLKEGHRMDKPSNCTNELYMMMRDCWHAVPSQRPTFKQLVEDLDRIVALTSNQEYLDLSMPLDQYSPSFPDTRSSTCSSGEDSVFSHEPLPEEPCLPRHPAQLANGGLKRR

First: TFEYRYLEDRD [CNOT3_Y746]
Second: GIYSGYDDAWD [POLR1C_Y36_N32I]
The phosphorylation enrichment of the first is higher: 0.935 for the first, 0.568 for the second.

First: QSSALYEDRYL [ASS1_Y83]
Second: RAVLLYEYVGK [NATD1_Y45]
The phosphorylation enrichment of the first is lower: 0.56 for the first, 3.61 for the second.

Compared with TVQVAYYTMMM [SPATA17_Y83], KPGLIYNKVNP [SPRED3_Y72_V71I] is lower in phosphorylation enrichment: 10.8 for the first, 0.373 for the second.

Going from RPGSGYTNIMR [PKLR_Y564] to PNAYIYVVQLP [L1CAM_Y420_A415P], the phosphorylation enrichment rises from 0.439 to 1.6.

Compared with GGYNNYGYGSD [HNRNPH3_Y159_N163S], IKNSGYISQFL [EIF2AK3_Y585_R588Q_YF] is higher in phosphorylation enrichment: 0.406 for the first, 0.445 for the second.

First: STSFDYCRVPM [BST2_Y8_YF]
Second: DEENFYQGSME [ASCC1_Y36_D34N]
The phosphorylation enrichment of the first is higher: 5.41 for the first, 0.465 for the second.

Compared with VDSLRYIFPKL [EIF2B3_Y92_A87V_YF], DFCDLYGGEKF [PTPN11_Y66_Y63C_YF] is higher in phosphorylation enrichment: 0.486 for the first, 0.575 for the second.

First: AGQERYRAITS [RAB11B_Y73]
Second: RMGNLYDIDEN [GRIN2A_Y1246_D1251N]
The phosphorylation enrichment of the first is lower: 0.613 for the first, 0.876 for the second.

First: VVVTKYCKEEL [ATP7B_Y1078_A1074V]
Second: AGTIPYHAHLD [ASS1_Y291_L290P]
The phosphorylation enrichment of the first is higher: 0.58 for the first, 0.458 for the second.

Going from ANAYIYDVQLP [L1CAM_Y420_V421D] to FGMQLYQNFMH [GRB14_Y347_YF], the phosphorylation enrichment falls from 0.65 to 0.544.

Compared with EKPAKYDDIKK [GAPDH_Y255], KRYRIYHLAIS [BRCA2_Y3009_T3013I] is higher in phosphorylation enrichment: 0.391 for the first, 0.599 for the second.

Compared with LLINKYGLSDH [SCP2_Y151_A155D], FHLLPYTVRAM [PARS2_Y93_YF] is higher in phosphorylation enrichment: 0.546 for the first, 0.564 for the second.

Compared with RREWFYEVIIA [BACE1_Y260_V265A_YF], LNPFIYSLRNC [OR1A2_Y288_W293C] is higher in phosphorylation enrichment: 0.784 for the first, 0.902 for the second.

Going from RASDYYSQQMA [GBP6_Y334_A331S] to RFLRGYRQHAY [HLA-A_Y137_D140H], the phosphorylation enrichment falls from 2.42 to 0.623.

Compared with ISSLLYELLEE [TRPC6_Y896_R895L], TEQMAYCPIQC [SHC4_Y403] is lower in phosphorylation enrichment: 0.953 for the first, 0.609 for the second.

Compared with PQAVRYIFTID [DCX_Y103_G100A_YF], LNPDGYKKAYE [CPXM2_Y427_E428K] is lower in phosphorylation enrichment: 1.01 for the first, 0.86 for the second.

In the case of RTTIHYNFMCN [TP53_Y234_C229R_YF], the phosphorylation enrichment is reported as 0.648.
